One test addresses human PD-L1/B7-H1 (Homo sapiens, UniProt Q9NZQ7). As to the kind of experiment: PD-L1 binding ELISA (Example 5). Particulars: coated antibody or immunocytokine, biotinylated human PD-L1/B7-H1. Here is the method: (§1) The interaction of the unmodified antibodies and corresponding IL-18 immunocytokines with relevant immune cell associated antigen are measured by ELISA assay. For these studies, Corning high-binding half-area plates (Fisher Scientific, Reinach, Switzerland) are coated overnight at 4° C. with 25 μl of unmodified antibodies corresponding IL-18 immunocytokines at 5 μg/ml in PBS. Plates are then washed four times with 100 μl of PBS-0.02% Tween20. Plate surfaces are blocked with 25 μl of PBS-0.02% Tween20-1% BSA at 37° C. during 1 h. Plates are then washed four times with 100 μl of PBS-0.02% Tween20. […] Plates are then washed four times with 100 μl of PBS-0.02% Tween20. Twenty-five microliters of Streptavidin-Horseradish peroxidase (#RABHRP3, Merck, Buchs, Switzerland) diluted at 1:500 into PBS-0.02% Tween20-0.1% BSA are added to each well and incubated at Room Temperature during 30 min. Plates are then washed four times with 100 μl of PBS-0.02% Tween20. Fifty microliters of TMB substrate reagent (#CL07, Merck, Buchs, Switzerland) are added to each well and incubated at 37° C. during 5 min. After 5 min at 37° C., Horseradish peroxidase reaction is stopped by adding 50 μl/well of 0.5M H2SO4 stop solution. ELISA signal is then measured at 450 nm on an ENSPTRE® plate reader from Perkin Elmer (Schwerzenbach, Switzerland).
(ELISA stands for enzyme-linked immunosorbent assay.)

The target in the next test is human PD-1/CD279 (Homo sapiens, UniProt Q15116). As to the kind of experiment: PD-1 binding ELISA (Example 5). Particulars: coated antibody or immunocytokine, biotinylated human PD-1/CD279-Fc. As to the method:
as §1

Test [1] concerns the target T1, human IL-18 binding protein isoform a (IL-18BPa) (Homo sapiens, UniProt O95998).
T1 sequence (O95998 31-194): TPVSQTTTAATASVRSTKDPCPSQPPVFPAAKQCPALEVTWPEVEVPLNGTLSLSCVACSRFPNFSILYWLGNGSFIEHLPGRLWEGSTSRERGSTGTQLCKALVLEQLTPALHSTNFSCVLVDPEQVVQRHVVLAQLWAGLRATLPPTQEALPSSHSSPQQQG
As to the kind of experiment: Cellular IL-18 Binding protein resistance assay in NK-92 cells (Example 13). Format: cell-based. Particulars: NK92 cells, IL-18 analyte 1 nM final, IL-18BPa titrated, 1 ng/ml IL-12; read-out: IC50 IL-18BP-mediated inhibition of IFNγ secretion. Here is the method: The NK cell line NK-92 derived from a patient with lymphoma (ATCC, Cat #CRL-2407) was cultured in aMEM medium supplemented with 20% FCS-Glutamax, 25 μM B-mercaptoEthanol, and 100 IU/ml of recombinant Human Interleukin-2 (TL-2). On the day of experiment, cells were harvested and washed with aMEM medium without IL-2. After counting, cells were seeded at 100 000 cells/well in a 384 well titer plate and incubated at 37° C./5% CO2. Sixteen 2-fold serial dilutions of Fc fused human IL-18 binding protein isoform a (IL-18BPa; R&D systems, Cat #119-BP) were prepared in aMEM medium-1 ng/ml IL-12 containing 2 nM of each IL-18 variants and were added to the NK-92 cells. Final IL-18 analytes concentration was 1 nM and final IL-18BPa concentrations ranged from to 566 nM down to 17 pM.
After 16-20 h incubation at 37° C./5% CO2, 5 μl of supernatant were carefully transferred to a 384 microwells OPTIplate (Perkin Elmer; Cat #6007270) and Interferon-gamma (IFNγ) levels measured using the Human IFNγ AlphaLISA Assay Kit (Perkin Elmer, Cat #AL217C). Briefly, 10 μl of 2.5× AlphaLISA Anti-IFNγ acceptor beads and biotinylated Antibody Anti-IFNγ mix were added to the 5 μl of NK-92 supernatants and incubated for 1 h at room temperature under shaking. Under subdued light, 2.5 μl of 2× streptavidin (SA) donor beads were pipetted in each well and incubated for 30 min at room temperature under shaking. AlphaLisa signal was then measured on an Enspire plate reader (Perkin Elmer) using 680 and 615 nm as excitation and emission wavelengths respectively. Half maximal inhibitory concentration (IC50) was calculated based on a variable slope, four parameter analysis using GraphPad PRISM software.

Chain of human PD-1/CD279 (Q15116 25-288): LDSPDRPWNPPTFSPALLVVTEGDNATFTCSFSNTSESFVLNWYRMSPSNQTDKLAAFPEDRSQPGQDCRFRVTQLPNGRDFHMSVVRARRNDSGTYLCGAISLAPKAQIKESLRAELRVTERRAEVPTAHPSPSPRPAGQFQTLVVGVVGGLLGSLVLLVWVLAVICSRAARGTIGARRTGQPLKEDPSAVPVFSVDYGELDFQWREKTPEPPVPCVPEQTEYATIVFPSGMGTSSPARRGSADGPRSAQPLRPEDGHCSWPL
Chain of human PD-L1/B7-H1 (Q9NZQ7 19-290): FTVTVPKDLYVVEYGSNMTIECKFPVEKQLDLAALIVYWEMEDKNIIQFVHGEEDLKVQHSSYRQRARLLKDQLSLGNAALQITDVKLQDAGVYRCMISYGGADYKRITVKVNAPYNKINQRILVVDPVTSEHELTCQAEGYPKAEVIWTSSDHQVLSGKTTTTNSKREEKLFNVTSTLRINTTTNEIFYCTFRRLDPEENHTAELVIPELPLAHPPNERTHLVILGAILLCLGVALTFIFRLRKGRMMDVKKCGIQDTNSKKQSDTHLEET

“Atezolizumab/Tecentriq: anti-PD-L1 antibody, unconjugated reference antibody [reference compound]”: the figures for the Kd with human PD-L1/B7-H1 and with human PD-1/CD279 were 0.443 nM and > 100 nM, respectively.

For “Composition B: immunocytokine: Atezolizumab/Tecentriq (anti-PD-L1) conjugated to IL-18 polypeptide SEQ ID NO: 30”, the half-maximal inhibitory concentration (IC50) in test [1] was > 1000 nM. For the same substance, in the test with human PD-1/CD279, the Kd is > 100 nM.

Turning to “LZM-009: anti-PD-1 antibody (VH SEQ ID NO: 376, VL SEQ ID NO: 377), unconjugated reference antibody [reference compound]”, the Kd with human PD-L1/B7-H1 was > 100 nM.

What is called Kd is the equilibrium constant for the complex coming apart. A high value points to a looser complex. By IC50 is commonly meant the concentration that inhibits the measured activity by half.
